Measurements reported in the supplement of paper PMC10567573.

B1: TEKT4 (parent)
chain: YARYHQAFADRDQSERQRHESQQL

Variants of: B1
Test: protein stability index of a GFP-peptide fusion (GPS, HEK-293T) (PSI 1-6); higher = more stable
Conditions: c terminus: a fixed tail appended
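Further: lentivirally expressed fusions sorted by FACS into six bins by GFP to DsRed ratio, PSI derived from sequencing read proportions per bin multiplied by bin number.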

Row | Variant | protein stability index
1 | YARYHQAFADRDRSERQRHESQQL [Q13R] | 1.88
2 | YARYHQAFADRDFSERQRHESQQL [Q13F] | 1.83
3 | YARYHQAFADRDSSERQRHESQQL [Q13S] | 2.49
4 | YARYHQAFADRDYSERQRHESQQL [Q13Y] | 1.85
5 | YARYHQAFADRDLSERQRHESQQL [Q13L] | 2.49
6 | YARYHQAFADRDNSERQRHESQQL [Q13N] | 2.22
7 | YARYHQAFADRDPSERQRHESQQL [Q13P] | 2.36
8 | YARYHQAFADRDQSEHQRHESQQL [R16H] | 2.28
9 | YARYHQAFADRDQSELQRHESQQL [R16L] | 3.1
10 | YARYHQAFADRDQSEMQRHESQQL [R16M] | 1.89
11 | YARYHQAFADRDQSEAQRHESQQL [R16A] | 2.35
12 | YARYHQAFADRDQSENQRHESQQL [R16N] | 2.4
13 | YARYHQAFADRDQSEPQRHESQQL [R16P] | 2.08
14 | YARYHQAFADRDQSEWQRHESQQL [R16W] | 2.07
15 | YARYHQAFADRDQSEIQRHESQQL [R16I] | 2.2
16 | YARYHQAFADRDQSEEQRHESQQL [R16E] | 2.43
17 | YARYHQAFADRDQSEQQRHESQQL [R16Q] | 2.21
18 | YARYHQAFADRDQSEFQRHESQQL [R16F] | 2.81
19 | YARYHQAFADRDQSEVQRHESQQL [R16V] | 2.35
20 | YARYHQAFADRDQSEGQRHESQQL [R16G] | 2.48
21 | YARYHQAFADRDQSEKQRHESQQL [R16K] | 1.93
22 | YARYHQAFADRDQSEYQRHESQQL [R16Y] | 1.91
23 | YARYHQAFADRDQSEDQRHESQQL [R16D] | 2.4
24 | YARYHQAFADRDQSETQRHESQQL [R16T] | 2.26

Row | Variant | protein stability index
25 | YARYHQAFADRDQSESQRHESQQL [R16S] | 2
26 | YARYHQAFADRDQSECQRHESQQL [R16C] | 2.63
27 | YARYHQAFADRDQSERQNHESQQL [R18N] | 2.01
28 | YARYHQAFADRDQSERQEHESQQL [R18E] | 2.2
29 | YARYHQAFADRDQSERQQHESQQL [R18Q] | 2.24
30 | YARYHQAFADRDQSERQKHESQQL [R18K] | 2.26
31 | YARYHQAFADRDQSERQCHESQQL [R18C] | 2.6
32 | YARYHQAFADRDQSERQTHESQQL [R18T] | 2.45
33 | YARYHQAFADRDQSERQVHESQQL [R18V] | 2.31
34 | YARYHQAFADRDQSERQFHESQQL [R18F] | 2.23
35 | YARYHQAFADRDQSERQLHESQQL [R18L] | 2.18
36 | YARYHQAFADRDQSERQAHESQQL [R18A] | 1.9
37 | YARYHQAFADRDQSERQMHESQQL [R18M] | 1.78
38 | YARYHQAFADRDQSERQHHESQQL [R18H] | 2.81
39 | YARYHQAFADRDQSERQYHESQQL [R18Y] | 2.82
40 | YARYHQAFADRDQSERQDHESQQL [R18D] | 2.36
41 | YARYHQAFADRDQSERQWHESQQL [R18W] | 2.01
42 | YARYHQAFADRDQSERQPHESQQL [R18P] | 2.26
43 | YARYHQAFADRDQSERQGHESQQL [R18G] | 3.52
44 | YARYHQAFADRDQSERQIHESQQL [R18I] | 2.15
45 | YARYHQAFADRDQSERQSHESQQL [R18S] | 2.59
46 | YARYHQAFADRDQSERYRHESQQL [Q17Y] | 2.72
47 | YARYHQAFADRDQSERERHESQQL [Q17E] | 1.63
48 | YARYHQAFADRDQSERARHESQQL [Q17A] | 2

Row | Variant | protein stability index
49 | YARYHQAFADRDQSERCRHESQQL [Q17C] | 2.07
50 | YARYHQAFADRDQSERFRHESQQL [Q17F] | 2.56
51 | YARYHQAFADRDQSERSRHESQQL [Q17S] | 1.87
52 | YARYHQAFADRDQSERDRHESQQL [Q17D] | 2.21
53 | YARYHQAFADRDQSERHRHESQQL [Q17H] | 1.9
54 | YARYHQAFADRDQSERIRHESQQL [Q17I] | 2.34
55 | YARYHQAFADRDQSERPRHESQQL [Q17P] | 2.11
56 | YARYHQAFADRDQSERLRHESQQL [Q17L] | 2.32
57 | YARYHQAFADRDQSERTRHESQQL [Q17T] | 2
58 | YARYHQAFADRDQSERWRHESQQL [Q17W] | 2.22
59 | YARYHQAFADRDQSERVRHESQQL [Q17V] | 2.31
60 | YARYHQAFADRDQSERMRHESQQL [Q17M] | 1.73
61 | YARYHQAFADRDQSERGRHESQQL [Q17G] | 1.87
62 | YARYHQAFADRDQSERNRHESQQL [Q17N] | 1.68
63 | YARYHQAFADRDQSERRRHESQQL [Q17R] | 1.94
64 | YARYHQAFADRDQSERKRHESQQL [Q17K] | 2.13
65 | YARYHQAFADLDQSERQRHESQQL [R11L] | 1.98
66 | YARYHQAFADYDQSERQRHESQQL [R11Y] | 1.64
67 | YARYHQAFADQDQSERQRHESQQL [R11Q] | 3.07
68 | YARYHQAFADMDQSERQRHESQQL [R11M] | 2.54
69 | YARYHQAFADPDQSERQRHESQQL [R11P] | 3.03
70 | YARYHQAFADNDQSERQRHESQQL [R11N] | 2.83
71 | YARYHQAFADKDQSERQRHESQQL [R11K] | 2.46
72 | YARYHQAFADSDQSERQRHESQQL [R11S] | 2.64

Row | Variant | protein stability index
73 | YARYHQAFADTDQSERQRHESQQL [R11T] | 2.12
74 | YARYHQAFADVDQSERQRHESQQL [R11V] | 2.12
75 | YARYHQAFADIDQSERQRHESQQL [R11I] | 2.1
76 | YARYHQAFADRDQSRRQRHESQQL [E15R] | 1.78
77 | YARYHQAFADRDQSARQRHESQQL [E15A] | 1.87
78 | YARYHQAFADRDQSTRQRHESQQL [E15T] | 2.07
79 | YARYHQAFADRDQSMRQRHESQQL [E15M] | 1.31
80 | YARYHQAFADRDQSYRQRHESQQL [E15Y] | 1.09
81 | YARYHQAFADRDQSIRQRHESQQL [E15I] | 1.52
82 | YARYHQAFADRDQSLRQRHESQQL [E15L] | 2.18
83 | YARYHQAFADRDQSCRQRHESQQL [E15C] | 2.36
84 | YARYHQAFADRDQSGRQRHESQQL [E15G] | 1.9
85 | YARYHQAFADRDQSWRQRHESQQL [E15W] | 1.61
86 | YARYHQAFADRDQSVRQRHESQQL [E15V] | 1.83
87 | YARYHQAFADRDQSSRQRHESQQL [E15S] | 1.76
88 | YARYHQAFADRDQSQRQRHESQQL [E15Q] | 1.97
89 | YARYHQAFADRDQSDRQRHESQQL [E15D] | 2.1
90 | YARYHQAFADRDQSFRQRHESQQL [E15F] | 2.76
91 | YARYHQAFADRDQSNRQRHESQQL [E15N] | 2.35
92 | YARYHQAFADRDQSPRQRHESQQL [E15P] | 1.8
93 | YARYHQAFADRDQSHRQRHESQQL [E15H] | 1.75
94 | YARYHQAFADRDQSKRQRHESQQL [E15K] | 1.73
